Results as given in patent US20220041746A1 (Sanofi, published 2022).
Changes are numbered by the printed parent chain. “And” between values parts separate entries of the source, which are not always exact repeats. Equal values may be shown once. Read-outs that look alike come from different tables or passages of the source.

How the values were obtained:
[1] = target: T1, hCD38-his (SEQ ID NO: 2) (human, UniProt P28907 45-300); assay: ELISA on hCD38::Histag
T1 construct: His-tagged soluble protein derived from isoform A; also called human CD38-histag; hCD38::Histag

[2] = target: T2, human CD38 expressed on the cell surface (human, UniProt P28907 1-300); assay: flow cytometry on preB::300.19 cells, apparent KD
T2 construct: whole, on cells; also called hCD38-expressing cells; huCD38
Experimental: (§1) The recombinant cell line was described by J. Deckket et al. 2014 Clin Cancer Res 20:4574-4583. […] Antibody binding was evaluated after centrifugation and resuspension of cells by adding 200 μL/well PBS 1% BSA and read using Guava® easvCyte™ 8HT Flow Cytometry System. Apparent KD and EC50 values were estimated using BIOST@T-BINDING and BIOST@T-SPEED software, respectively.

[3] = target: T3, cynomolgus monkey CD38 expressed on the cell surface (cynomolgus monkey, UniProt Q5VAN0 1-301); assay: flow cytometry on preB::300.19 cells, apparent KD
T3 construct: whole, on cells; also called cCD38-expressing cells
Experimental: as §1

[4] = target: T4, cCD38-his (SEQ ID NO: 4) (cynomolgus monkey, UniProt Q5VAN0 46-301); assay: ELISA on cynoCD38::Histag [Cont.]
T4 construct: His-tagged soluble protein; also called cyno CD38-histag; cynoCD38::Histag

[5] = target: T4, cCD38-his (SEQ ID NO: 4); assay: ELISA (column ELISA EC50 nM, cyno)
[6] = target: T2, human CD38 expressed on the cell surface; assay: flow cytometry (column FACS EC50 nM, hu)
Experimental: as §1

[7] = target: T1, hCD38-his (SEQ ID NO: 2); assay: SPR, mAb captured via anti-human Fc, soluble CD38-his injected
Experimental: (§2) The binding properties of the anti-huCD38 mabs were evaluated using a BIAcore 2000 (BIAcore Inc., Uppsala, Ni). […] The surface was regenerated between injections using 30 μL of 50 mM NaOH-1 M NaCl. Individual sensorgrams wore analyzed using BIAsimulation software.

[8] = target: T4, cCD38-his (SEQ ID NO: 4); assay: as above
Experimental: as §2

[9] = target: T3, cynomolgus monkey CD38 expressed on the …; assay: flow cytometry (column FACS EC50 nM, cyno)
Experimental: as §1

[10] = target: T3, cynomolgus monkey CD38 expressed on the …; assay: flow cytometry (FACS) on 300.19 PreB cynoCD38 cells [Cont.]
Experimental: as §1

[11] = target: T2, human CD38 expressed on the cell surface; assay: flow cytometry (FACS) on 300.19 PreB hCD38 cells
Experimental: as §1

[12] = target: T1, hCD38-his (SEQ ID NO: 2); assay: ELISA (column ELISA EC50 nM, hu)
[13] = target: T2, human CD38 expressed on the cell surface; assay: flow cytometry on preB::300.19 cells, apparent KD; remark: listed apart in the source
Experimental: as §1, with “Clin.” for “Clin”, “μl/well” for “μL/well”, “easyCyte™” for “easvCyte™”, “BIOST®T-BINDING” for “BIOST@T-BINDING”, “BIOST®T-SPEED” for “BIOST@T-SPEED”

[14] = target: T3, cynomolgus monkey CD38 expressed on the …; assay: flow cytometry on preB::300.19 cells, apparent KD; remark: listed apart in the source
Experimental: as §1, with “Clin.” for “Clin”, “μl/well” for “μL/well”, “easyCyte™” for “easvCyte™”, “BIOST®T-BINDING” for “BIOST@T-BINDING”, “BIOST®T-SPEED” for “BIOST@T-SPEED”

[15] = target: T5, CD38 isoform A (SEQ ID NO:1) (human, UniProt P28907 45-300); assay: ELISA, plate coated with the CD38 isoform
T5 construct: also called huCD38 isoform A
Experimental: (§3) 96-well plates were coated with either isoform at 0.5 μg/well in PBS and 100 μL/well of antibodies were added to the plate. The plate was incubated at 37° C. for 1 h and washed five times with PBS containing 0.05% Tween-20 (PBS-T). […] Following incubation at 37° C. for 1 h in darkness, plates were washed with PBS-T five times. Antibody binding w as visualized by adding TMB-H2O2 buffer and read at a wavelength of 450 nm. EC50 values were estimated using BIOST@T-SPEED software.

[16] = target: T6, CD38 isoform E (SEQ ID NO:105) (human, UniProt P28907 45-195, limits assumed); assay: ELISA, plate coated with the CD38 isoform
T6 construct: also called huCD38 isoform E
Experimental: as §3

[17] = target: T4, cCD38-his (SEQ ID NO: 4); assay: ELISA on cynoCD38::Histag [Cont.]; remark: listed apart in the source
[18] = target: T1, hCD38-his (SEQ ID NO: 2); assay: ELISA on hCD38::Histag; remark: listed apart in the source
[19] = target: T3, cynomolgus monkey CD38 expressed on the …; assay: flow cytometry on PréB cCD38 cells
Experimental: as §1, with “Clin.” for “Clin”, “μl/well” for “μL/well”, “easyCyte™” for “easvCyte™”, “BIOST®T-BINDING” for “BIOST@T-BINDING”, “BIOST®T-SPEED” for “BIOST@T-SPEED”

[20] = target: T2, human CD38 expressed on the cell surface; assay: flow cytometry on PréB hCD38 cells
Experimental: as §1, with “Clin.” for “Clin”, “μl/well” for “μL/well”, “easyCyte™” for “easvCyte™”, “BIOST®T-BINDING” for “BIOST@T-BINDING”, “BIOST®T-SPEED” for “BIOST@T-SPEED”

[21] = target: T1, hCD38-his (SEQ ID NO: 2); assay: ELISA on hCD38::Histag; remark: listed apart in the source
[22] = target: T4, cCD38-his (SEQ ID NO: 4); assay: ELISA on cynoCD38::Histag [Cont.]; remark: listed apart in the source
[23] = target: human CD28 (Cambridge Biologics LLC Cat 03-01-0303) (human, UniProt P10747 19-152); assay: ELISA on coated hCD28 IgG4
Experimental: The binding properties of the purified antibodies were analyzed either using ELISA or SPR methods. For ELISA, corresponding antigens for each binding site in the trispecific binding protein were used to coat a 96-well Immuno Plate (Nunc 439454, Thermo Fisher Scientific) overnight at 4° C. using 2 μg/ml each antigen m PBS(pH7.4). The coated plate was blocked using 5% skim milk 12% BSA in PBS for one hour at RT, followed by washing with PBS+[…] three times (Aqua Max 400, Molecular Devices). Serial dilution of antibodies (trispecific and control Abs) were prepared and added onto the ELISA plates (100 μl/well in duplicate), incubated at RT for one hour, followed by washing 5 times with PBS+0.25% Tween 20.
The reaction was terminated by adding 50 μl 1M H₂SO₄, and OD₄₅₀ was measured using SpectraMax M5 (Molecular Devices) and analyzed using SoltMax Pro6.3 software (Molecular Devices). The final data was transferred to GraphPad Prism software (GraphPad Software, CA. USA), and plotted as shown. EC50 was calculated using the same software.

B1: mAb3 (antibody, human IgG1, kappa, V domains shown)
VH: QVQLVQSGAEVVKPGASVKVSCKASGYTFTSFNMHWVKEAPGQRLEWIGYIYPGNGGTNYNQKFQGRATLTADTSASTAYMELSSLRSEDTAVYFCARTGGLRRAYFTYWGQGTLVTVSS
VL: DIVLTQSPATLSLSPGERATISCRASESVDSYGNGFMHWYQQKPGQPPRLLIYLASSRATGIPARFSGSGSGTDFTLTISPLEPEDFAVYYCQQNKEDPWTFGGGTKLEIKR
notes: also called antiCD38_C2-CD38-1_VH3-VL3
**Q.** For B1, which EC50 [1] is on record?
**A.** 0.16 nM

**Q.** What about the Kd [2] of the same binder?
**A.** 0.78 nM

**Q.** And the Kd [3]?
**A.** 1.31 nM

**Q.** And the EC50 [4]?
**A.** 0.15 nM

**Q.** What about the EC50 [5] of the same binder?
**A.** 0.15 nM

**Q.** And the EC50 [6]?
**A.** 0.78 nM

**Q.** And the Kd [7]?
**A.** 0.483 nM

**Q.** And the koff [7]?
**A.** 0.000283 s⁻¹

**Q.** And the Kd [8]?
**A.** 0.71 nM

**Q.** And the koff [8]?
**A.** 0.000129 s⁻¹

**Q.** And the EC50 [9]?
**A.** 1.31 nM

**Q.** What about the EC50 [10] of the same binder?
**A.** 1.31 nM

**Q.** And the EC50 [11]?
**A.** 0.78 nM and 0.117 µg/mL

**Q.** And the EC50 [12]?
**A.** 0.16 nM

B2: mAb2 (antibody, human IgG1, kappa, V domains shown)
VH: B1 VH with F32Y, N33A, N55Q
VL: B1 VL with E27Q, D30S, N34Q, L54G
notes: also called antiCD38_C2-CD38-1_VH1-VL1; CD38VH1
**Q.** Which results are given for B2?
**A.** Kd [13]: 0.5 nM; Kd [14]: 1 nM; EC50 [15]: 0.14 nM; EC50 [16]: 0.1 nM; Kd [2]: 0.33 nM; Kd [3]: 0.75 nM; EC50 [5]: 0.1 nM; EC50 [6]: 0.33 nM; EC50 [17]: 0.1 nM; EC50 [18]: 0.11 nM; Kd [7]: 0.332 nM; koff [7]: 0.00039 s⁻¹; Kd [8]: 3.44 nM; koff [8]: 0.000784 s⁻¹; EC50 [9]: 0.76 nM; EC50 [10]: 0.76 nM and 0.114 µg/mL; EC50 [19]: 1 nM and 0.147 µg/mL; EC50 [11]: 0.33 nM; EC50 [12]: 0.11 nM; EC50 [20]: 0.5 nM and 0.0694 µg/mL

B3: mAb5 (antibody, human IgG1, kappa, V domains shown)
VH: B1 VH with V20M, L83I
VL: B1 VL
notes: also called antiCD38_C2-CD38-1_VH6-VL3
**Q.** B3 was tested. Which Kd [2] did it give?
**A.** 0.68 nM

**Q.** And the Kd [3]?
**A.** 1.07 nM

**Q.** What about the EC50 [21] of the same binder?
**A.** 0.14 nM

**Q.** And the EC50 [5]?
**A.** 0.14 nM

**Q.** What about the EC50 [6] of the same binder?
**A.** 0.68 nM

**Q.** What about the Kd [7] of the same binder?
**A.** 0.312 nM

**Q.** What about the koff [7] of the same binder?
**A.** 0.000333 s⁻¹

**Q.** What about the Kd [8] of the same binder?
**A.** 0.563 nM

**Q.** What about the koff [8] of the same binder?
**A.** 0.000125 s⁻¹

**Q.** What about the EC50 [9] of the same binder?
**A.** 1.06 nM

**Q.** What about the EC50 [10] of the same binder?
**A.** 1.06 nM and 0.16 µg/mL

**Q.** What about the EC50 [11] of the same binder?
**A.** 0.68 nM and 0.102 µg/mL

**Q.** What about the EC50 [12] of the same binder?
**A.** 0.14 nM

**Q.** And the EC50 [22]?
**A.** 0.14 nM

B4: Control CD38xCD3 antibody (bispecific antibody)
benchmark heavy chain 1 (binds CD38): EVQLVESGGGLVQPGGSLRLSCAASGFTFSYSWMNWVRQAPGKGLEWVSEINPQSSTINYATSVKGRFTISRDNSKNTLYLQMNSLRAEDTAVYYCARYGNWFPYWGQGTLVTVSSASTKGPSVFPLAPSSKSTSGGTAALGCLVKDYFPEPVTVSWNSGALTSGVHTFPAVLQSSGLYSLSSVVTVPSSSLGTQTYICNVNHKPSDTKVDKKVEPKSCDKTHTCPPCPAPPVAGPSVFLFPPKPKDTLMISRTPEVTCVVVDVKHEDPEVKFNWYVDGVEVHNAKTKPREEEYNSTYRVVSVLTVLHQDWLNGKEYKCKVSNKALPAPIEKTISKAKGQPREPQVYTLPPSREEMTKNQVSLTCDVSGFYPSDIAVEWESDGQPENNYKTTPPVLDSDGSFFLYSKLTVDKSRWEQGDVFSCSVMHEALHNHYTQKSLSLSPGK
benchmark heavy chain 2 (binds CD3): not shown
benchmark light chain (binds CD38): DIVMTQSPSSLSASVGDRVTITCRASQNVDTWVAWYQQKPGQSPKALIYSASYRYSGVPDRFTGSGSGTDFTLTISSLQPEDFATYFCQQYDSYPLTFGGGTKLEIKRTVAAPSVFIFPPSDEQLKSGTASVVCLLNNFYPREAKVQWKVDNALQSGNSQESVTEQDSKDSTYSLSSTLTLSKADYEKHKVYACEVTHQGLSSPVTKSFNRGEC
notes: also called benchmark control CD38×CD3 bispecific antibody
**Q.** Does B4 bind [23]?
**A.** no binding (tested: 10^4 pM)
